First the molecules themselves.
B1: wild-type Tie2 ectodomain-Fc [human] / Angiopoietin-1 [not stated] (parent complex)
chain 1: AMDLILINSLPLVSDAETSLTCIASGWRPHEPITIGRDFEALMNQHQDPLEVTQDVTREWAKKVVWKREKASKINGAYFCEGRVRGEAIRIRTMKMRQQASFLPATLTMTVDKGDNVNISFKKVLIKEEDAVIYKNGSFIHSVPRHEVPDILEVHLPHAQPQDAGVYSARYIGGNLFTSAFTRLIVRRCEAQKWGPECNHLCTACMNNGVCHEDTGECICPPGFMGRTCEKACELHTFGRTCKERCSGQEGCKSYVFCLPDPYGCSCATGWKGLQCNEACHPGFYGPDCKLRCSCNNGEMCDRFQGCLCSPGWQGLQCEREGIQRMTPKIVDLPDHIEVNSGKFNPICKASGWPLPTNEEMTLVKPDGTVLHPKDFNHTDHFSVAIFTIHRILPPDSGVWVCSVNTVAGMVEKPFNISVK
chain 2: HIGCSNQRRSPENSGRRYNRIQHGQCAYTFILPEHDGNCRESTTDQYNTNALQRDAPHVEPDFSSQKLQHLEHVMENYTQWLQKLENYIVENMKSEMAQIQQNAVQNHTATMLEIGTSLLSQTAEQTRKLTDVETQVLNQTSRLEIQLLENSLSTYKLEKQLLQQTNEILKIHEKNSLLEHKILEMEGKHKEELDTLKEEKENLQGLVTRQTYIIQELEKQLNRATTNNSVLQKQQLELMDTVHNLVNLCTKEGVLLKGGKREEEKPFRDCADVYQAGFNKSGIYTIYINNMPEPKKVFCNMDVNGGGWTVIQHREDGSLDFQRGWKEYKMGFGNPSGEYWLGNEFIFAITSQRQYMLRIELMDWEGNRAYSQYDRFHIGNEKQNYRLYLKGHTGTAGKQSSLILHGADFSTKDADNDNCMCKCALMLTGGWWFDACGPSNLNGMFYTAGQNHGKLNGIKWHYFKGPSYSLRSTTMMIRPLDF
B2: wild-type Tie2 ectodomain-Fc [human] / Angiopoietin-2 [not stated] (parent complex)
chain 1: B1 chain 1
chain 2: YNNFRKSMDSIGKKQYQVQHGSCSYTFLLPEMDNCRSSSSPYVSNAVQRDAPLEYDDSVQRLQVLENIMENNTQWLMKLENYIQDNMKKEMVEIQQNAVQNQTAVMIEIGTNLLNQTAEQTRKLTDVEAQVLNQTTRLELQLLEHSLSTNKLEKQILDQTSEINKLQDKNSFLEKKVLAMEDKHIIQLQSIKEEKDQLQVLVSKQNSIIEELEKKIVTATVNNSVLQKQQHDLMETVNNLLTMMSTSNSAKDPTVAKEEQISFRDCAEVFKSGHTTNGIYTLTFPNSTEEIKAYCDMEAGGGGWTIIQRREDGSVDFQRTWKEYKVGFGNPSGEYWLGNEFVSQLTNQQRYVLKIHLKDWEGNEAYSLYEHFYLSSEELNYRIHLKGLTGTAGKISSISQPGNDFSTKDGDNDKCICKCSQMLTGGWWFDACGPSNLNGMYYPQRQNTNKFNGIKWYYWKGSGYSLKATTMMIRPADF

For four variants, response results are on record in paper PMC8294587, “Intrinsic differences in the mechanisms of Tie2 binding to angiopoietins exploited by directed evolution to create an Ang2-selective ligand trap” (The Journal of Biological Chemistry, 2021).

The first assay covers variants of B1. As to the kind of experiment: ELISA (named by the earlier reader; legend does not name the assay); mutant read at its highest concentration point, about 300 nM Tie2 ectodomain; parent value is the wild-type curve's highest concentration point, about 50-100 nM; parent: …; read off a plot.
Turning to chain 1 AMDLILINSLPLVSDAETSLTCIASGWRPHEPITIGRDFEALMNQHQDPLEVTQDVTREWAKKVVWKREKASKINGAYFCEGRVRGEAIRIRTMKMRQQASFLPATLTMTVDKGDNVNISFKKVLIKEEDAVIYKNGSFIHSVPAAAVPDILEVHLPHAQPQDAGVYSARYIGGNLFTSAFTRLIVRRCEAQKWGPECNHLCTACMNNGVCHEDTGECICPPGFMGRTCEKACELHTFGRTCKERCSGQEGCKSYVFCLPDPYGCSCATGWKGLQCNEACHPGFYGPDCKLRCSCNNGEMCDRFQGCLCSPGWQGLQCEREGIQRMTPKIVDLPDHIEVNSGKFNPICKASGWPLPTNEEMTLVKPDGTVLHPKDFNHTDHFSVAIFTIHRILPPDSGVWVCSVNTVAGMVEKPFNISVK [chain 1 R145A, chain 1 H146A, chain 1 E147A], the response is around 0.09 AU.

In the next assay the parent is B1. Kind of assay: ELISA (named by the earlier reader; legend does not name the assay); mutant read at its highest concentration point, about 300 nM Tie2 ectodomain; parent value is the wild-type curve's highest concentration point, about 30-50 nM; parent: 1; read off a plot.
For the variant chain 1 AMDLILINSLPLVSDAETSLTCIASGWRPHEPITIGRDFEALMNQHQDPLEVTQDVTREWAKKVVWKREKASKINGAYFCEGRVRGEAIRIRTMKMRQQASFLPATLTMTVDKGDNVNISFKKVLIKEEDAVIYKNGSFIHSVPAAEVPDILEVHLPHAQPQDAGVYSARYIGGNLFTSAFTRLIVRRCEAQKWGPECNHLCTACMNNGVCHEDTGECICPPGFMGRTCEKACELHTFGRTCKERCSGQEGCKSYVFCLPDPYGCSCATGWKGLQCNEACHPGFYGPDCKLRCSCNNGEMCDRFQGCLCSPGWQGLQCEREGIQRMTPKIVDLPDHIEVNSGKFNPICKASGWPLPTNEEMTLVKPDGTVLHPKDFNHTDHFSVAIFTIHRILPPDSGVWVCSVNTVAGMVEKPFNISVK [chain 1 R145A, chain 1 H146A], the response was around 0.88 AU.

The variants in the next assay derive from B2. As to the kind of experiment: ELISA (named by the earlier reader; legend does not name the assay); mutant read at its highest concentration point, about 300 nM Tie2 ectodomain; parent value is the wild-type curve's highest concentration point, about 50 nM; parent: 1; read off a plot.
chain 1 AMDLILINSLPLVSDAETSLTCIASGWRPHEPITIGRDFEALMNQHQDPLEVTQDVTREWAKKVVWKREKASKINGAYFCEGRVRGEAIRIRTMKMRQQASFLPATLTMTVDKGDNVNISFKKVLIKEEDAVIYKNGSFIHSVPAAEVPDILEVHLPHAQPQDAGVYSARYIGGNLFTSAFTRLIVRRCEAQKWGPECNHLCTACMNNGVCHEDTGECICPPGFMGRTCEKACELHTFGRTCKERCSGQEGCKSYVFCLPDPYGCSCATGWKGLQCNEACHPGFYGPDCKLRCSCNNGEMCDRFQGCLCSPGWQGLQCEREGIQRMTPKIVDLPDHIEVNSGKFNPICKASGWPLPTNEEMTLVKPDGTVLHPKDFNHTDHFSVAIFTIHRILPPDSGVWVCSVNTVAGMVEKPFNISVK [chain 1 R145A, chain 1 H146A]: the response was around 1 AU.

Variants of B2 are the subject of another assay. As to the kind of experiment: ELISA (named by the earlier reader; legend does not name the assay); mutant read at its highest concentration point, about 300 nM Tie2 ectodomain; parent value is the wild-type curve's highest concentration point, about 50 nM; parent: 0.9; read off a plot.
Turning to chain 1 AMDLILINSLPLVSDAETSLTCIASGWRPHEPITIGRDFEALMNQHQDPLEVTQDVTREWAKKVVWKREKASKINGAYFCEGRVRGEAIRIRTMKMRQQASFLPATLTMTVDKGDNVNISFKKVLIKEEDAVIYKNGSFIHSVPAAAVPDILEVHLPHAQPQDAGVYSARYIGGNLFTSAFTRLIVRRCEAQKWGPECNHLCTACMNNGVCHEDTGECICPPGFMGRTCEKACELHTFGRTCKERCSGQEGCKSYVFCLPDPYGCSCATGWKGLQCNEACHPGFYGPDCKLRCSCNNGEMCDRFQGCLCSPGWQGLQCEREGIQRMTPKIVDLPDHIEVNSGKFNPICKASGWPLPTNEEMTLVKPDGTVLHPKDFNHTDHFSVAIFTIHRILPPDSGVWVCSVNTVAGMVEKPFNISVK [chain 1 R145A, chain 1 H146A, chain 1 E147A], the response is around 0.58 AU.
